Assay: label from the status in PepcDB records

Sequence: MTSSEQPRTYWLEHAWLGTHVEPGVALDVRDGRITAVNQGVATPPPGAGILRGLTLPGLANAHSHAFHRALRGTVQVGSGTFWTWREVMYSVADRLTPDTYHALARAVYAEMALAGITAVGEFHYVHHAPGGTPYADPNAMGEALIEAAAEAGVRITLLDTCYLSSGFGEPPNTHQRRFSDGTADAWAERCSVLKERDHARIGAAIHSVRAVPADQLATVAQWAEERRAPLHVHLSEQTAENDACRQAHGRTPTRLLADHGVLGARTTGVHNTHLTDEDIALLGGSRTGTCMCLTTERDLADGIGPAAALQRAGSPLSLGSDSHAVVDLLEEARAMELNERLRTRARGHWTAAALLRAATADGHAALGWDDTGRIEAGARADLATIALDSVRTAGPLPRLGAETAVFAATAADVRHTVVGGRHVVRDGAHTLVPDVPQALARAVEALRA
- protein production: failed

Sequence: MERITDVPESPAQSADPARVNDYDSFAEAYSAETENNLVNAYYARPAMLALAGDVAGRRILDAGCGSGPLSAALRDRGAVVTGIDASAGMLALARRRLGDDVALHVVDLSDRLPFDDGAFDDVVASLVLHYLEDWGPTLAELRRVLRPGGRLIASVDHPFVAYTFQDPRPDYFATTSYTFDWTFNGQSVPMKFWRKPLHAMTDAFTTAGFRLSVISEPQPDPAAIELFPDAFHDLSTKTCFLFFVVEVPPSATGSDDY
- protein production: failed

Sequence: MPLLFDSQMTPITNSGWRRHWFEIVYRHDTPPSRNFDLLLMSAILGSVLVVMLDSVLILQAHWKYFLYTLEWLFTLIFTADYLIRLVVVQQRLRYVLSIWGIIDLLSILPTYLSLFMPGTQSLLIVRVLRLLRLFRILKMTHYVEESGELIQALWRSRRKVMLFICTVMTIAMIAGATMYVIEGPQHGFTSIPTGMYWAIVTMTTVGFGDITPQSTLGRFVTSALILIGYSIIAVPTGIYTAELTQGLLRSEEEHRHDMRTCPHCGLQGHDHDARYCRNCGGILPQTLHEPNPATQQ
- protein production: failed

Sequence: MTTLVPLNRIDSQKIEDLLDIGFGKDRHGRTAYRLRQGVSAIPELSFAAVDGDILQGIIQCWPIRLSCLNGKKLPMILLGPVAVHPDYQGHGIGQTLVQHSLDVADSSDITGHDAVMLIGDPEYYNRFFGFSDEETGDWRLPGPVEKRRLLARLTSPRL
- protein production: failed

Sequence: MSRMETSRTLSAFPKIISVDDHTVEPPDVWRDRLPKKYQDTGPRIVRAPLKEMTFLGGKFAPVMGGPGDDGPLGDWWVYEDLHRPLTRLDTAVGYSRDEIKLEVITYEQMRPGSYDVPRRLADMDVNHVQSALCFPTFPRFCGQTFTEAKDRELGLLGVRAYNDWMVEEWCGPDAHGRLIPLTLVPLWDARLAAAEVRRNAARGVRAVAFSEIPPHLGLPSVHTDDWDPFLAACDETGTVIAMHIGSSSRMPSTSADAPPAVGSTITFANCCFSMVDWLMSGKFERFPNLRVMYAEGQIGWIPYILERADVVWEENRGWGGVADKVHRPPSELFAGHVFGCFFDDAFGLRNLDAIGIGNVLYETDYPHSDSTWPKSREVGEAQMGHLEAEVVERIVRGNAIELLGLTDDGLWAGPGGAR
- protein production: failed

Sequence: MAESTRIGQESRVTLHFALKLEDGNVVDSTFDKQPASFKVGDGNLLPGFEQALFGLKAGDKRTLSILPEQGFGQPNPQNVQIMPRDQFQDMELAEGLLVIFNDAAKTELPGVVKAFDEQQVTVDFNHPLAGKTLAFEVEIIDVQPA
- protein production: failed

Sequence: MALAGLLLGSALASSARAQSSDAAKPELEDALAVVDSLRRAGAFPAAQERLQSLREQHPERVPVLWRLVYTYADLGQSTDEENVRAQYYNNALNVAKAGLAADSTSARAHLAMAVAQGRAALDAGTRERIERSRAVKRHADRALAIDSTLDGAYHTRGRWHREVEDIGFVQRAIVKTVYGGLPESSIDQAVRDFRRALELRDRIFHHLELGKTYLQMDRPDAARRELRAVLDMPAEEPFDPRYKDEARRLLDDLD
- protein production: failed

Sequence: NIESIENLQGIRALQQQAPQLLSSGLPNEQQFSLLKQAGVDVVINLMPDSSKDAHPDEGKLVTQAGMDYVYIPVDWQNPKVEDVEAFFAAMDQHKGKDVLVHCLANYRASAFAYLYQLKQGQNPNMAQTMTPWNDELAIYPKWQALLTEVSAKYGH
- protein production: not failed

Sequence: ERRAPRKGNTLYVYGEDMTPTLLRGAFSPFGNIIDLSMDPPRNCAFVTYEKMESADQAVAELNGTQVESVQLKVNIARKQPMLD
- protein production: not failed
